Source: the supplement of paper PMC12042874
± gives the uncertainty stated by the source.

Experiment: amyloid nucleation score (Sup35N fusion, yeast selection) (log enrichment); library NNK3; higher = more nucleation; inactive = no reads after selection
Method in brief: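 Plasmid inserts were Illumina-sequenced at input and output from psi-negative yeast expressing Sup35N fused to peptides of 20 random codons. The yeast were induced with 100 μM copper sulfate for 24 hours and grown 7 days at 30°C on medium lacking adenine and uracil, and sequences with under 100 input reads were excluded. Nucleation score is the DiMSum log enrichment of output over input reads, centred on the mode score of non-aggregating sequences.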

| Substance | amyloid nucleation score |
| --- | --- |
| SSGHAGGYINYSCTFSAYRM | 0.786 ± 0.19 |
| FLTWRIGVVS | inactive |
| SAIPVWGKMRGFYLFYETHC | inactive |
| RILALCGHRGNGLQGYILLD | 0.744 ± 0.13 |
| VLSGNFNTSDFLLMFLITSQ | inactive |
| CHYNFPVPAVKILRGQRNVA | inactive |
| LAMPTLLQASVTNLVGDSIV | -0.265 ± 0.39 |
| LCVVEIFTLIGSCCHSDLGW | 0.914 ± 0.13 |
| FVLICGYFIFIWTVSFNCYW | inactive |
| ICLYLRQVKLIAGAERKKVQ | inactive |
| FRILIIFSVYGSMISHLP | inactive |
| ALSAYQGVFSYWCRWQWLVA | inactive |
| INYCALARFLMNECLCPICT | inactive |
| VMFLEDSVFV | inactive |
| FYVNCFSL | 1.01 ± 0.11 |
| RNNVPGVEYVLDYLFMLKVM | inactive |
| YIFFMDLNYLSSNSITVRAV | 1.53 ± 0.074 |
| QPWFMEVL | inactive |
| MEYSRVVAL | -0.421 ± 0.66 |
| SLNILWRSVCFTGCERGYLG | 0.763 ± 0.2 |
| FNRLDTNTTSGPRTGTTLEM | inactive |
| FLCMLVYI | 1.23 ± 0.11 |
| TVQFMRKAQRQFSGA | inactive |

| Substance | amyloid nucleation score |
| --- | --- |
| RGANYVFGWKITVNAFEGEC | 0.838 ± 0.14 |
| RGYGTSDRIAALMWLSRWFQ | inactive |
| GHIWFIAEVNSICYLLFLVS | inactive |
| YTLYLGCGTNDVWVDAYLYS | inactive |
| FSNSSGNGEGDLRENLQNKM | inactive |
| FLTAKKSEFERTLEFRLWWC | inactive |
| YGSSHYPYNSY | inactive |
| KPCHLYMTAEDTYVWMSVGL | inactive |
| RFFLYFNCAWVILMWCKRIV | inactive |
| KMMARTSNVVEVLCWRTDVA | 0.015 ± 0.64 |
| HSFIYVLDVLNVR | inactive |
| SNDHKITD | inactive |
| LNGSCKCLKELFVCYRSWVN | -0.79 ± 0.93 |
| DSVMVYIRFIAMSSPQKG | inactive |
| NGFKEGLIAVLREQYLSYQ | inactive |
| SLSMATFKAILSLFADTWWR | inactive |
| KSWGLVHKCSSAFMFPKFCP | inactive |
| DIVTTHVGKSLG | inactive |
| VYCHC | inactive |
| CRTQMPSIFDL | inactive |
| SCSLRYGMTGWPESKTYTAF | inactive |
| CYMADNVLVGFTFVGIQEMK | inactive |
| KYYYVLGMQMYRHLYWTACV | inactive |

| Substance | amyloid nucleation score |
| --- | --- |
| SSARRKNLRYEGVLRTEARV | inactive |
| YKRLVSLNVEWALRK | inactive |
| WGKTRFWRVSSWLLNDVWRV | inactive |
| TNTPIMKCELHTRDFVKVIS | inactive |
| SEDDC | inactive |
| SAYYYGKY | inactive |
| YRCDVFFLSVVVDSNFIDKL | 2.83 ± 0.079 |
| NEHGEAGCAYEAKGAVGVKS | inactive |
| DPIYVANARNHRLS | inactive |
| CKKGRLVGRSRCLVCWMCCM | -0.155 ± 0.96 |
| GVCASNQLALKCTYVPMSVR | inactive |
| SWIVLYRMDS | inactive |
| PHAYTVIDSSRFRPKERLCG | inactive |
| ASDCWLFIGNAGSFTGKRSC | inactive |
| FRPAN | -0.286 ± 0.78 |
| VLGWGSIVMNDEGELSVGMV | inactive |
| CVLWYCCYTQLSMQKCNSRM | inactive |
| RLLFMIPIMIVMNQHPTMNV | 1.01 ± 0.17 |
| DIVANYQMM | inactive |
| SCNVVLRFGAMIYTL | inactive |
| YFVYEG | inactive |
| NAHLRCMTTILGLFQTFGRG | 2.02 ± 0.063 |
| KNGFRNVRKQRGAQKE | inactive |

| Substance | amyloid nucleation score |
| --- | --- |
| LRPKYTFYCRLD | 0.137 ± 0.28 |
| RRWPTPVCFNEG | inactive |
| IYNNSYKFCILLVTWTIEVQ | inactive |
| ITYSMLVVVQNLA | 1.75 ± 0.1 |
| VITMGMSLSSVSGLRDYLQE | 1.36 ± 0.12 |
| YCGEYYITGNMRLPLSTPSG | inactive |
| TLMISPENIVRR | inactive |
| IIMGV | inactive |
| YDGIKSGFECLESGRKCKTA | inactive |
| RTKMLAVRDVHSGYHSTTQC | inactive |
| SAYFAVY | inactive |
| TNYICCSFRFPWNHSYV | 3.4 ± 0.061 |
| WGLLRYYE | 0.091 ± 0.28 |
| DMIVNYCTAQRSFVSIVSIK | inactive |
| YLIMSVSYSASTCLIKMAMV | inactive |
| NVRLYHFSGET | 0.031 ± 0.41 |
| NRYLVVLRSCS | inactive |
| TDRVCTPSVSDILVRWNNSQ | inactive |
| GISCNLYVINGICSWYFLVT | 1.56 ± 0.07 |
| TRLWDKD | inactive |
| SMRYVTLKPNF | inactive |
| TYRVLE | inactive |
| FFVWKHLLMRFRYALACTLM | inactive |

| Substance | amyloid nucleation score |
| --- | --- |
| CFIMLWCTISFIILVSLVTD | 0.671 ± 0.3 |
| TCTCKVRLYCTMARSPFIMG | inactive |
| KRVSTDAW | inactive |
| MKLSMHVCAGAKLSGEGFRF | inactive |
| VSPVGSSRWWHDLHVSLETS | inactive |
| FEYLSMYELGISVE | inactive |
| GLCRLIDLKM | inactive |
| GCIRLGLNSVGVNNIVA | inactive |
| YVDLQPITREADDLRALTFM | inactive |
| PKSYRSGSAVFLGFVSWYRW | inactive |
| YMTGLD | inactive |
| RMILNMCCTITDRKCHSVSD | 2.39 ± 0.055 |
| RSCVCTTESPLSMTGLRRVV | inactive |
| ASRKTFYAL | inactive |
| ASQAALFGKIHYEASY | inactive |
| QWKSSLDWRRCW | inactive |
| ICMYRRLRISCVLAYRFRHF | inactive |
| MLRLKYLIELTRDFFGWFLF | inactive |
| LGVCSGH | inactive |
| AVTSLDVGFYV | inactive |
| FCEPDWNEMGMDFVRCGPSL | inactive |
| LMIWVSDLSE | inactive |
| QAIGSKRT | inactive |

| Substance | amyloid nucleation score |
| --- | --- |
| VHLQGITSITVGIWPHKHLD | inactive |
| VIGWKINGGYPERTS | 0.239 ± 0.42 |
| HGHDNVEDTCLRFSPAGLST | inactive |
| NFRLSVLKVLCYVIVED | 2.14 ± 0.057 |
| LSVTRNACTEPFRGFLIGLY | inactive |
| ACSLAFLHICHRHF | 0.712 ± 0.39 |
| YQLFRFWDVRDSNHSKKIMQ | inactive |
| FTTRFTFTIP | 1.24 ± 0.17 |
| AIVWPSYFIWFYSNESRKDR | inactive |
| FSTVTYQGVTALVNQSSVTT | inactive |
| TIPFRAINPVSM | inactive |
| NVLLFLIVKHSVGIFVV | inactive |
| VSFCGTPFFYHWRHSNWLFK | inactive |
| RLAGSFKLKSVYKGMLDYLA | 0.819 ± 0.15 |
| LVCFPGTSFAGVCDW | inactive |
| ISTFVLNDAMLRRWET | inactive |
| NVVWIYTIFRGVCFGYRRWA | inactive |
| SAVRGRCVLYGNRPLIHVRK | inactive |
| SQWIGFIEGCGNWMGYLACV | inactive |
| ILEVGRQCMDGFCSKFNGEY | inactive |
| DCTSILELVGGARPTHSGLE | inactive |
| FRFTFLMRNML | inactive |
| VLQHRLVFDFYKFCMSTMVH | inactive |

| Substance | amyloid nucleation score |
| --- | --- |
| GQRNVVSYTSNMNVPLFSFG | inactive |
| RCSCLTFVVSTK | 0.424 ± 0.75 |
| LCFAVSDCFNYKVLPILMGA | inactive |
| IILVSYVREMKHSSSSFVLS | 2.04 ± 0.098 |
| VWHMGWKLPDS | -0.39 ± 0.56 |
| LTMPWTAYCPFKCFLLRADS | inactive |
| SRRVNFLPVVFQHMTWLVLV | inactive |
| IVNRIVVSSRRFSLVHWGWA | 1.73 ± 0.11 |
| LGNISCELARIELHAPAIR | inactive |
| FYSLIMHLKRLSYVA | inactive |
| NENTALSTWAPGYLINSYRA | inactive |
| SLMDGFLPNSGEFRIKYAVL | inactive |
| LGLMLDILRKQDC | inactive |
| DFTLTPMWRHFEGFNKVAWG | inactive |
| MSLVFRMSPHIQLVGWVHGR | inactive |
| WWSCGILSKPFFWYISRTF | inactive |
| LSFVP | inactive |
| FNIHSQIAFLFLCGYLESTV | 1.94 ± 0.075 |
| LVLDCMIMGMIIDSWYWPLN | inactive |
| VKLMASEHLSCIGRI | inactive |
| TSWLVWRKGNGLGGNGQQRR | inactive |
| IKVISLEAMKTYCF | inactive |
